Data from patent publication US11040083B2, “Polypeptides comprising vinculin binding sites for the treatment of proliferation and/or adhesion related diseases” (PARIS SCIENCES ET LETTRES—QUARTIER LATIN, priority 2015, dated 2021).
Where “and” joins values, the source holds several entries; their conditions need not be identical. Identical values can stand only once.

What was measured:
[1] = molecular target: T1, full-length vinculin (HV) (Homo sapiens, UniProt P18206); assay: ELISA solid phase binding assay; settings: IpaA construct immobilized on the solid phase, HV as soluble ligand
T1 construct: with full-length vinculin (HV) in solid phase assays
T1 sequence (P18206 1-1066 isoform P18206-2): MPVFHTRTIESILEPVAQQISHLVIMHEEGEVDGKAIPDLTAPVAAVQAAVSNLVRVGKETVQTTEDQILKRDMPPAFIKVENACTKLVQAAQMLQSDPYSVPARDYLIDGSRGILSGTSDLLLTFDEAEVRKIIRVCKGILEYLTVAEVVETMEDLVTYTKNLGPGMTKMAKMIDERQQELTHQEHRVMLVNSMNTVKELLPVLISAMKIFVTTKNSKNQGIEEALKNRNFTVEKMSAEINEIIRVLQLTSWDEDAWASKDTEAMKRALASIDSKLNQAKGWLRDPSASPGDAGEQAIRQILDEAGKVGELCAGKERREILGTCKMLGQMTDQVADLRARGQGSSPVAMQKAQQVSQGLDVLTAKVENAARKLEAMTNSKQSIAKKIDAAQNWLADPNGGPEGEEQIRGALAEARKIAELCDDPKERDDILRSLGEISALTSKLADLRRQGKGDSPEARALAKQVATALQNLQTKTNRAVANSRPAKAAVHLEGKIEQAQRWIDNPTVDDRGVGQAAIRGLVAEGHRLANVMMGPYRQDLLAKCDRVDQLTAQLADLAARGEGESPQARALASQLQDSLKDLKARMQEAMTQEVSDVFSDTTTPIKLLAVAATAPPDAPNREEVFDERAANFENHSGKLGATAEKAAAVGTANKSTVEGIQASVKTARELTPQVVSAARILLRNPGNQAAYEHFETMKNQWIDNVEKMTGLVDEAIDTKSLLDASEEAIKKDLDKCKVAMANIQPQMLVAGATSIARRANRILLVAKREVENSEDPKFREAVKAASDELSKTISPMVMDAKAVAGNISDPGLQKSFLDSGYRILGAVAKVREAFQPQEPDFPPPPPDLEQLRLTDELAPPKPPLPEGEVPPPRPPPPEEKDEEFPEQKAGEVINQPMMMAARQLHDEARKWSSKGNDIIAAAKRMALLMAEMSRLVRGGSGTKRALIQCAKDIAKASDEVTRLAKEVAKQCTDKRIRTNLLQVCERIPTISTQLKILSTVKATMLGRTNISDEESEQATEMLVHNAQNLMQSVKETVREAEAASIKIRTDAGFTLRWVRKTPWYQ
Description: 96-well Maxisorp (Nunc) ELISA plates were coated with 30 nM full-length vinculin, vinculin constructs or IpaA proteins in binding buffer (25 mM Tris pH 7.4, 100 mM NaCl and 1 mM β-Mercaptoethanol). The wells were blocked with PBS-BSA 2%, washed and incubated with half series dilutions of IpaA or vinculin proteins in binding buffer+0.2% BSA at room temperature for one hour. After incubation the plates were washed and incubated with an anti-IpaA (dilution: 1/2000) polyclonal primary antibody (Tran Van Nhieu et al., 1997. EMBO J. 16(10):2717-29) or anti-vinculin (dilution: 1/2000) m11.5 monoclonal primary antibody (ref. V4505, Sigma-Aldrich) in binding buffer+0.2% BSA for one hour at room temperature. Plates were washed and incubated with an HRP-coupled secondary anti-rabbit or anti mouse Ig antibodies (dilution: 1/32000, Jackson ImmunoResearch) for one hour.

talin H1-H4 [2] = molecular target: T2, talin H1-H4 (Homo sapiens, UniProt Q9Y490); assay: Native-PAGE gel shift; type: binding
Description: Talin H1-H4 and IpaA peptides/proteins were incubated in binding buffer for 1 hour at 4° C. After incubation, the protein/peptides were mixed in a 2× Native loading buffer (62.5 mM Tris pH 6.8, Glycerol 25%) and separated by Tris-Glycine Native-PAGE electrophoresis. Gels were stained using standard colloidal Coomassie stain.
Talin H1-H4 and IpaA peptides/proteins at different molar ratios were incubated in binding buffer (25 mM Tris pH 7.4, 100 mM NaCl and 1 mM β-Mercaptoethanol) for 1 hour at 4° C. After incubation, the protein/peptides were mixed in a 2× Native loading buffer (62.5 mM Tris pH 6.8, Glycerol 25%) and separated by Tris-Glycine Native-PAGE electrophoresis. The Native PAGE electrophoresis gels were stained using standard colloidal Coomassie stain.

[3] = Size exclusion chromatography, hydrodynamic radius; type: physicochemical; settings: for Radiusm (estimated hydrodynamic radius): SEC Superdex 75, 20 μM equimolar
Description: The purified proteins HVD1, A483, A524 and Talin H1-H4 were used at an equimolar concentration of 20 μM and incubated at 4° C. for one hour in binding buffer. The protein mixtures (200 μL) were injected in a FPLC chromatography system (FPLC Pharmacia) at 16° C. in a Superdex 75 HR 10/30 column (GE Healthcare) previously equilibrated with 10 volumes of binding buffer. The SEC system was calibrated with a Low Molecular Weight Gel Filtration Kit (ref. 17-0442-01, GE Healthcare) and the hydrodynamic radius (Angstroms) of the reference proteins (BSA, OVA, ChyA and RibA) correlated with the elution volume (Ve) using an Euler exponential equation: Hydrodynamic radius (Ang)=210.46 e^−0.189 Ve (mL), with a correlation squared coefficient of R^2=0.9973. Fractions corresponding to elution volume 8-10 mLs were recovered, and analyzed by SDS-PAGE using 15% polyacrylamide gels.

talin H1-H4 [4] = molecular target: T2, talin H1-H4; assay: SEC-MALS; type: binding; settings: 20 μM equimolar
Description: The purified proteins IpaA 483-633 (A483), IpaA 524-633 (A524) and Talin H1-H4 (TlnH1-H4) were used at 20 μM equimolar concentrations and incubated at 4° C. for one hour in binding buffer (25 mM Tris-HCL pH 7.0, 100 mM NaCl and 1 mM β-Mercaptoethanol). The protein mixtures (200 μL) were analyzed by size-exclusion chromatography (SEC) on a Superdex 200 10/300 GL (GE Healthcare) using a Shimadzu Prominence HPLC. Multi-angle laser light scattering (MALS) was measured with a MiniDAWN TREOS (Wyatt Technology). Refractometry was monitored using an Optilab T-rEX (Wyatt Technology).

T2 sequence (Q9Y490 482-636): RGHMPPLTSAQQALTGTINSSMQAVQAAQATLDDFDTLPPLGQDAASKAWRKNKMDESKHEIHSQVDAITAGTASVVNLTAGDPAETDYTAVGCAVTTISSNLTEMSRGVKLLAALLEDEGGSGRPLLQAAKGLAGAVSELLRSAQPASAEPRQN

Molecule | ligand concentration at which the saturation curve plateaus [1] [nM] | formation of a complex with talin H1-H4 (talin H1-H4 [2]) | Radiusg (hydrodynamic radius of a globular protein with the same MW) [3] [Ang] | Radiusm/Radiusg (RH/RG ratio) [3] | Radiusm (estimated hydrodynamic radius) [3] [Ang] | complex formation with talin H1-H4 in solution (talin H1-H4 [4]) | concentration at which the complex with talin H1-H4 / migration shift could be detected (talin H1-H4 [2]) [µM]
A524: IpaA 524-633, containing only IpaA VBS1 and VBS2 (protein, listed as Shigella flexneri, A524 / IpaA (524-633), IpaA 524-633, containing only IpaA VBS1 and VBS2) KSKDITKSTTEHRINNKLKVTDANIRNYVTETNADTIDKNHAIYEKAKEVSSALSKVLSKIDDTSAELLTDDISDLKNNNDITAENNNIYKAAKDVTTSLSKVLKNINKD | 25 | no migration shift could be detected | 15.36 | 1.88 | 28.93 | absence of complex formation | 
A483: amino acids 483 to 633 of SEQ ID NO: 1 (IpaA), containing IpaA VBS1, VBS2 and VBS3 (protein, listed as Shigella flexneri, A483 / IpaA (483-633)) GDTYLTRETIFEASKKVTNSLSNLISLIGTKSGTQERELQEKSKDITKSTTEHRINNKLKVTDANIRNYVTETNADTIDKNHAIYEKAKEVSSALSKVLSKIDDTSAELLTDDISDLKNNNDITAENNNIYKAAKDVTTSLSKVLKNINKD | 25 |  | 17.99 | 1.83 and 1.80 | 32.86 | compact globular complex corresponding to one talin H1-H4 dimer bound to one A483 molecule | ≤ 5
